Measured values: US12064464B2, “Plantaricin NC8 alpha beta markedly enhances the effects of antibiotics” (priority 2018, dated 2024)
Entries after “also recorded” stand apart in the source; their conditions may differ. Read-outs that look alike come from different tables or passages of the source.

Columns and labels:
Escherichia coli = experiment: Broth microdilution MIC/MBC; type: cell-based; conditions: for MBC / MIC: peptide alone
From the text: (§1) Staphylococcus aureus CCUG 35601 (MRSA, Culture Collection, University of Gothenburg) and Staphylococcus aureus ATCC 29213 (MSSA, ATCC, Manassas, VA). Staphylococcus epidermidis ATCC 12228 (ATCC, Manassas, VA), RP62A, N15 and 10 clinical isolates of Staphylococcus epidermidis that have previously been characterized. Isolated Escherichia coli, Enterococcus faecium (including VRE), Pseudomonas aeruginosa, Klebsiella pneumoniae, Enterobacter spp and Acinetobacter baumannii were obtained from Orebro University hospital. Isolated Streptococcus mutans, Streptococcus constellatus and Streptococcus anginosus were obtained from Malmo University. The bacteria were grown on Luria-Bertani (LB) agar plates, supplemented with 5% defibrinated horse blood, and incubated at 37° C. overnight. Single colonies were inoculated into 5 ml of LB broth and incubated on a shaker (300 rpm) at 37° C. overnight. The bacterial concentration was determined by viable count and adjusted to correlate with approximately 10^9 CFU/ml.
(§2) The broth microdilution method was used to determine minimal inhibitory concentration (MIC) and minimal bactericidal concentration (MBC). Two-fold serial dilutions of the peptides were used and the final concentrations ranged from 0.097-50 μM. […] The effect of bacteriocin-antibiotic combinations was accomplished by using the same concentration series of antibiotics with a constant concentration of PLNC8 αβ (3.1 μM) in all the wells. […] All experiments were repeated at least three times.

Pseudomonas aeruginosa = experiment: Broth microdilution MIC/MBC; type: cell-based; conditions: for MBC / MIC: P. aeruginosa, peptide alone
From the text: as §1, §2

Enterococcus faecium = experiment: Broth microdilution MIC/MBC; type: cell-based; conditions: for MBC / MIC: peptide alone
From the text: as §1, §2

[1] = tested on: keratinocytes infected by S. aureus; experiment: IncuCyte live-cell analysis of infected keratinocytes; type: cell-based, human
Method: (§3) HaCaT cells were cultured overnight in a 24-well plate at a seed-count of 2×10^5 cells per well. […] Co-stimulation was performed by infection of human keratinocytes, in the presence or absence of PLNC8 αβ, for 24 h, or infection of the cells for 1 h followed by addition of different concentrations of PLNC8 αβ for 6 h. Furthermore, infection of keratinocytes, with or without PLNC8 αβ, were monitored in real-time for 72 hours using IncuCyte Live-cell Analysis System. Bacterial load was quantified by measuring the fluorescence of green fluorescent protein (GFP) and cell viability was determined by measuring the fluorescent dye Draq7 that stains nuclei of dead cells.

[2] = tested on: S. epidermidis ATCC 12228; experiment: Sytox Green uptake (membrane permeabilization); type: cell-based, Staphylococcus epidermidis; conditions: 5 μM
Method: The fluorescent dye Sytox® Green, which can only cross damaged membranes and fluoresce upon binding to nucleic acids, was used to study the antimicrobial activity of PLNC8 αβ on S. epidermidis, S. aureus (MSSA, MRSA) and Streptococcus spp. The bacteria were washed and resuspended in Krebs-Ringer Glucose buffer (KRG) (120 mM NaCl, 4.9 mM KCl, 1.2 mM MgSO4, 1.7 mM KH2PO4, 8.3 mM Na2HPO4, and 10 mM glucose, pH 7.3) and incubated in the presence or absence of different combinations of PLNC8 αβ in 96-well microtiter plates for 2 min. Images were captured with Olympus BX41 at 40× magnification.

Porphyromonas gingivalis = conditions: references 1, 2; cited from earlier work
HaCaT cells = experiment: Scratch assay and ELISA on keratinocytes; type: cell-based, human; conditions: uninfected cells, 24 h
Method: Human keratinocytes (HaCaT) were cultured in Dulbecco's modified Eagle medium (DMEM, Fisher Scientific, New York, USA) supplemented with 10% FBS (FBS, Invitrogen Ltd, Paisley, UK) incubated in a stable environment at 95% air, 5% CO2 and 37° C. The cells were used at passages 1-20.
as §3
ELISA was performed on supernatants retrieved from human keratinocytes that were exposed to MSSA and PLNC8 αβ. The levels of CXCL8 (Human IL-8 ELISA MAX Deluxe, Nordic Biosite, Sweden) and IL-6 (Human IL-6 ELISA MAX Deluxe, Nordic Biosite, Sweden) were quantified according to the manufacturer's instructions.

[3] = ESBL-producing E. coli, first isolate
[4] = ESBL-producing E. coli, second isolate
[5] = Non-ESBL E. coli, first isolate
[6] = Non-ESBL E. coli, second isolate
[7] = Vancomycin resistant E. faecium (VRE)

B1: PLNC8 αβ: two-peptide class IIb bacteriocin of L. plantarum NC8: PLNC8 α (SEQ ID NO 1) with PLNC8 β (SEQ ID NO 2) (peptide)
alpha: DLTTKLWSSWGYYLGKKARWNLKHPYVQF
beta: SVPTSVYTLGIKILWSAYKHRKTIEKSFNKGFYH
modifications: Lactobacillus plantarum NC8
- effect of peptide alone on Escherichia coli (Escherichia coli): permeabilized and killed
- effect of sub-MIC peptide on antibiotics (Escherichia coli): significantly enhanced the effects of different antibiotics
- MBC (Escherichia coli; [3]): >50 µM
- MIC (Escherichia coli; [3]): >50 µM
- MBC (Escherichia coli; [4]): >50 µM
- MIC (Escherichia coli; [4]): >50 µM
- MBC (Escherichia coli; [5]): >50 µM
- MIC (Escherichia coli; [5]): >50 µM
- MBC (Escherichia coli; [6]): >50 µM
- MIC (Escherichia coli; [6]): >50 µM
- effect of peptide alone on Escherichia coli (Escherichia coli; listed as PLNC8αβ): did not affect the growth; also recorded: does not affect the growth
- effect of peptide alone on Pseudomonas aeruginosa (Pseudomonas aeruginosa): permeabilized and killed
- effect of sub-MIC peptide on antibiotics (Pseudomonas aeruginosa): enhanced the effects of different antibiotics
- MBC (Pseudomonas aeruginosa; first isolate): >50 µM
- MIC (Pseudomonas aeruginosa; first isolate): >50 µM
- MBC (Pseudomonas aeruginosa; second isolate): >50 µM
- MIC (Pseudomonas aeruginosa; second isolate): >50 µM
- effect of peptide alone on Pseudomonas aeruginosa (Pseudomonas aeruginosa; listed as PLNC8αβ): did not affect the growth; also recorded: does not affect the growth
- effect of peptide alone on Enterococcus faecium (Enterococcus faecium): permeabilized and killed
- effect of sub-MIC peptide on antibiotics (Enterococcus faecium): significantly enhanced the effects of different antibiotics
- MBC (Enterococcus faecium; E. faecium, first isolate): 6.25 µM
- MIC (Enterococcus faecium; E. faecium, first isolate): 6.25 µM
- MBC (Enterococcus faecium; E. faecium, second isolate): 6.25 µM
- MIC (Enterococcus faecium; E. faecium, second isolate): 3.1 µM
- MBC (Enterococcus faecium; [7]): 25 µM
- MIC (Enterococcus faecium; [7]): 3.1 µM
- effect of peptide alone on Enterococcus faecium (Enterococcus faecium; listed as PLNC8αβ): both inhibitory and bactericidal
- bacterial growth (GFP fluorescence) prevented and delayed ([1]; S. aureus MOI:0.1): up to 38 h
- time for which a single dose prevented bacterial growth and protected the cells ([1]; S. aureus MOI:0.1): up to 42 h
- time for which a single dose prevented bacterial growth and protected the cells ([1]; S. aureus MOI:1): up to 32 h
- perturbation of the plasma membrane of S. epidermidis [2]: equally rapid (2 min)
- activity against Porphyromonas gingivalis (Porphyromonas gingivalis): efficient against the periodontal pathogen Porphyromonas gingivalis
- IL-6 and CXCL8 (HaCaT cells): not altered
- wound healing (scratch assay) (HaCaT cells): promoted wound healing in vitro
